System: MDA-MB-435 cells
Experiment: Phosphotyrosine immunoblot, MDA-MB-435 cells
Assay type: cell-based, human
Experimental: Cell culture, preparation and stimulation—T24 cells were maintained in RPMI 1640 medium containing 5% fetal bovine serum, and MDA-MB-435 and 293 cells were maintained in Dulbecco's modified Eagle's medium with 10% serum at 37° C. in 5% CO2. Cells were washed with phosphate-buffered saline (PBS) and starved in the appropriate serum-free medium for 6 h at 37° C. Cells were detached by brief treatment with 0.05% trypsin/0.02% EDTA in PBS and collected by centrifugation, resuspended in soybean trypsin inhibitor (1 mg/ml in serum-free medium), and washed in 2% bovine serum albumin/serum-free medium. Cells were maintained in suspension for 1 h in 2% bovine serum albumin/serum-free medium at 37° C. with end-over-end agitation. Quiescent cells (3×10^6/ml) were treated with disintegrins or other reagents while in suspension, or were allowed to adhere to Matrigel (Becton Dickinson, Bedford, Mass.) diluted 1:100 with serum-free medium during treatment.
Lysate preparation and immunoprecipitation—Suspended and adherent cells were washed twice with cold PBS and lysed in cold lysis buffer (50 mM Tris, pH 8.0, 150 mM NaCl, 1% Nonidet P-40, 0.5% deoxycholate, 0.1% SDS, protease inhibitor cocktail, 1 mM sodium pyrophosphate, 1 mM sodium orthovanadate, 50 mM sodium fluoride). After 10-15 min incubation on ice, insoluble material was removed by centrifugation at 14,000 RPM in a microcentrifuge for 15 min. Supernatants were collected and total protein concentrations standardized by the BCA protein assay (Pierce, Rockford, Ill.). Immunoprecipitation was carried out by incubating whole cell lysates (200 μg total protein) with 1.25 μg anti-FAK or anti-CAS mAb 4-6 h at 4° C. followed by 20 μl protein G-agarose overnight at 4° C. Immunoprecipitates were washed 4 times in lysis buffer without inhibitors and dissociated by adding SDS-PAGE sample buffer and boiling 5 min. Whole cell lysates (30 μg total protein) or immunoprecipitates were resolved by 7.5% SDS-polyacrylamide gel electrophoresis and transferred to nitrocellulose membranes.
Immunoblotting—Membranes were blocked with 5% nonfat milk/Tris-buffered saline/0.1% Tween 20 (blocking buffer) 1 h at room temperature or overnight at 4° C. Primary antibody incubations were performed in blocking buffer for 1 h at room temperature. After washing in Tris-buffered saline/0.1% Tween 20, membranes were incubated with horseradish peroxidase-conjugated secondary antibody in blocking buffer 1 h at room temperature. Membranes were washed extensively. Inimunoblots were developed using Super Signar West Pico Chemiluminescent Substrate from Pierce. Densitometry was performed using UN-SCAN-IT™, software (Silk Scientific, Orem, Utah))

Row | Molecule | effect on contortrostatin (10 nM)-induced tyrosine phosphorylation (1 μM, added simultaneously, 10 min) | effect alone on tyrosine phosphorylation (concentrations up to 1 μM) | stimulation of tyrosine phosphorylation (10 μg/ml, data not shown)
1 | flavoridin: monomeric disintegrin obtained from Sigma (protein) GEECDCGSPSNPCCDAATCKLRPGAQCADGLCCDQCRFKKKRTICRIARGDFPDDRCTGLSNDCPRWNDL | completely abrogated | no effect on tyrosine phosphorylation | –
2 | monomeric vitronectin: soluble monomeric vitronectin (protein, UniProt P04004 20-478, looked up) Vitronectin: DQESCKGRCTEGFNVDKKCQCDELCSYYQSCCTDYTAECKPQVTRGDVFTMPEDEYTVYDDGEEKNNATVHEQVGGPSLTSDLQAQSKGNPEQTPVLKPEEEAPAPEVGASKPEGIDSRPETLHPGRPQPPAEEELCSGKPFDAFTDLKNGSLFAFRGQYCYELDEKAVRPGYPKLIRDVWGIEGPIDAAFTRINCQGKTYLFKGSQYWRFEDGVLDPDYPRNISDGFDGIPDNVDAALALPAHSYSGRERVYFFKGKQYWEYQFQHQPSQEECEGSSLSAVFEHFAMMQRDSWEDIFELLFWGRTSAGTRQPQFISRDWHGVPGQVDAAMAGRIYISGMAPRPSLAKKQRFRHRNRKGYRSQRGHSRGRNQNSRRPSRATWLSLFSSEESNLGANNYDDYRMDWLVPATCEPIQSVFFFSGDKYYRVNLRTRRVDTVDPPYPRSIAQYWLGCPAPGHL | – | – | failed to stimulate tyrosine phosphorylation
